# Source: IntAct's records for PubMed 22921828
# B1: Epidermal growth factor receptor kinase substrate 8 (Homo sapiens), Q12929 (parent)
# chain: MNGHISNHPSSFGMYPSQMNGYGSSPTFSQTDREHGSKTSAKALYEQRKNYARDSVSSVSDISQYRVEHLTTFVLDRKDAMITVDDGIRKLKLLDAKGKVWTQDMILQVDDRAVSLIDLESKNELENFPLNTIQHCQAVMHSCSYDSVLALVCKEPTQNKPDLHLFQCDEVKANLISEDIESAISDSKGGKQKRRPDALRMISNADPSIPPPPRAPAPAPPGTVTQVDVRSRVAAWSAWAADQGDFEKPRQYHEQEETPEMMAARIDRDVQILNHILDDIEFFITKLQKAAEAFSELSKRKKNKKGKRKGPGEGVLTLRAKPPPPDEFLDCFQKFKHGFNLLAKLKSHIQNPSAADLVHFLFTPLNMVVQATGGPELASSVLSPLLNKDTIDFLNYTVNGDERQLWMSLGGTWMKARAEWPKEQFIPPYVPRFRNGWEPPMLNFMGATMEQDLYQLAESVANVAEHQRKQEIKRLSTEHSSVSEYHPADGYAFSSNIYTRGSHLDQGEAAVAFKPTSNRHIDRNYEPLKTQPKKYAKSKYDFVARNNSELSVLKDDILEILDDRKQWWKVRNASGDSGFVPNNILDIVRPPESGLGRADPPYTHTIQKQRMEYGPRPADTPPAPSPPPTPAPVPVPLPPSTPAPVPVSKVPANITRQNSSSSDSGGSIVRDSQRHKQLPVDRRKSQMEEVQDELIHRLTIGRSAAQKKFHVPRQNVPVINITYDSTPEDVKTWLQSKGFNPVTVNSLGVLNGAQLFSLNKDELRTVCPEGARVYSQITVQKAALEDSSGSSELQEIMRRRQEKISAAASDSGVESFDEGSSH
# partner: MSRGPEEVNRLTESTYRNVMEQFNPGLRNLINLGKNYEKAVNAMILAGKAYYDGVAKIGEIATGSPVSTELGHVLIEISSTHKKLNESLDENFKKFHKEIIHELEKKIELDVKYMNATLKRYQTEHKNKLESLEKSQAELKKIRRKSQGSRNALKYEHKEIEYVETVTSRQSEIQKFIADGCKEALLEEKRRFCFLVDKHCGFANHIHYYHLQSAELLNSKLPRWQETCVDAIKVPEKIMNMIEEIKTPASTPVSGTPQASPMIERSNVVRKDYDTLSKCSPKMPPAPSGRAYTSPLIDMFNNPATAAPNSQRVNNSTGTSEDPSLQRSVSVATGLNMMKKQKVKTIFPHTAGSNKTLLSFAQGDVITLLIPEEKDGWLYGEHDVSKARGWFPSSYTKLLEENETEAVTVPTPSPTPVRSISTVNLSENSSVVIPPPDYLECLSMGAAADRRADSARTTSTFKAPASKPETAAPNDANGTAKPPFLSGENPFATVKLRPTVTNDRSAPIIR
# B2: "Secreted effector protein EspF(U)" (Escherichia coli O157:H7), P0DJ88 (parent)
# chain: MINNVSSLFPTVNRNITAVYKKSSFSVSPQKITLNPVKISSPFSPSSSSISATTLFRAPNAHSASFHRQSTAESSLHQQLPNVRQRLIQHLAEHGIKPARSMAEHIPPAPNWPAPPPPVQNEQSRPLPDVAQRLVQHLAEHGIQPARNMAEHIPPAPNWPAPPLPVQNEQSRPLPDVAQRLVQHLAEHGIQPARSMAEHIPPAPNWPAPPPPVQNEQSRPLPDVAQRLMQHLAEHGIQPARNMAEHIPPAPNWPAPTPPVQNEQSRPLPDVAQRLMQHLAEHGIQPARNMAEHIPPAPNWPAPTPPVQNEQSRPLPDVAQRLMQHLAEHGINTSKRS
# partner: B1 partner
# Variants of: B1
# Details: with bi2l1_human BAIAP2L1, Q9UHR4
row,Variant,effect of a mutation on the interaction
1,A215W,increasing interaction strength

# Variants of: B2
# Details: with bi2l1_human BAIAP2L1, Q9UHR4
row,Variant,effect of a mutation on the interaction
1,W300A,decreasing interaction strength

# Variants of: B2
# Details: with bi2l1_human BAIAP2L1, Q9UHR4
# Remark: another data set of the same source
row,Variant,effect of a mutation on the interaction
1,W300A,disrupting interaction strength
